This note sets out measurements from patent publication US20250250314.

For this data set, the target named is UCM12.
UCM12, sequence (chain, as listed by the source, chain 1 of 3, other chains not shown): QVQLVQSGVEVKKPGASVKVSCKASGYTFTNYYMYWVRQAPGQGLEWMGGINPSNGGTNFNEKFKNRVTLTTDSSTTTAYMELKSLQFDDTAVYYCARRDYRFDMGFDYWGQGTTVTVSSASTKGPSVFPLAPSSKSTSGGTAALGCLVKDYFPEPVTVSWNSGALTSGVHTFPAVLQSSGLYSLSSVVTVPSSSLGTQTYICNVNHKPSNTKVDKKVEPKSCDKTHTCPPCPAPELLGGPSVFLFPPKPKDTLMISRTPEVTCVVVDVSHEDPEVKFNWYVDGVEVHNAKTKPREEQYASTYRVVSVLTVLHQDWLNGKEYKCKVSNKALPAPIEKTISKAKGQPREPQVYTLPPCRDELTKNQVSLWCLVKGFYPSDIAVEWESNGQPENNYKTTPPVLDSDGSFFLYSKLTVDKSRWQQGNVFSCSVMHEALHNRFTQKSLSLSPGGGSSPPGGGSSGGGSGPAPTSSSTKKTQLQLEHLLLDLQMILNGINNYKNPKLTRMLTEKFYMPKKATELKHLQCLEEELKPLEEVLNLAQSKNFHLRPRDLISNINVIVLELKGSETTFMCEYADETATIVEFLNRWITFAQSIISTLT
UCM12, sequence (chain, as listed by the source, chain 2 of 3, other chains not shown): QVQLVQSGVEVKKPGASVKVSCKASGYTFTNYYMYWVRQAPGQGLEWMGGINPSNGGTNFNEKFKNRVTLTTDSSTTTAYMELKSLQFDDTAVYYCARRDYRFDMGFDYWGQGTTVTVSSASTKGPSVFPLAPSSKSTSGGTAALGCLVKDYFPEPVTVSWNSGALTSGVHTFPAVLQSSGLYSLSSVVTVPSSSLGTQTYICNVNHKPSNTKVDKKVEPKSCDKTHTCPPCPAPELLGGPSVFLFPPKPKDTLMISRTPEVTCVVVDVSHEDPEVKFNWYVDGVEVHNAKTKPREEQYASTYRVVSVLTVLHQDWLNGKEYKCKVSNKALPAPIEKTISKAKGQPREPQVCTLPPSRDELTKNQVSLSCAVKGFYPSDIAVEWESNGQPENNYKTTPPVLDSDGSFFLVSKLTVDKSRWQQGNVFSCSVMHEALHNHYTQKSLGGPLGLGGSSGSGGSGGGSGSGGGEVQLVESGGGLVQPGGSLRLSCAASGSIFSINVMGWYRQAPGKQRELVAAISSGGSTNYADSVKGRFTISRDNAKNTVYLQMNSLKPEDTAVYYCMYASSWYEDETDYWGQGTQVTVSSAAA

B1: MMP2 (protein)
chain: YNFFPRKPKWDKNQITYRIIGYTPDLDPETVDDAFARAFQVWSDVTPLRFSRIHDGEADIMINFGRWEHGDGYPFDGKDGLLAHAFAPGTGVGGDSHFDDDELWTLGEGQVVRVKYGNADGEYCKFPFLFNGKEYNSCTDTGRSDGFLWCSTTYNFEKDGKYGFCPHEALFTMGGNAEGQPCKFPFRFQGTSYDSCTTEGRTDGYRWCGTTEDYDRDKKYGFCPETAMSTVGGNSEGAPCVFPFTFLGNKYESCTSAGRSDGKMWCATTANYDDDRKWGFCPDQGYSLFLVAAHEFGHAMGLEHSQDPGALMAPIYTYTKNFRLSQDDIKGIQELYGASPDIDLGTGPTPTLGPVTPEICKQDIVFDGIAQIRGEIFFFKDRFIWRTVTPRDKPMGPLLVATFWPELPEKIDAVYEAPQEEKAVFFAGNEYWIYSASTLERGYPKPLTSLGLPPDVQRVDAAFNWSKNKKTYIFAGDKFWRYNEVKKKMDPGFPKLIADAWNAIPDNLDAVVDLQGGGHSYFFKGAYYLKLENQSLKSVKFGSIKSDWLGC
With B1, the kcat/Km came to 1900 M⁻¹ s⁻¹.

B2: Matrix Metalloproteinase 1 (protein)
chain: FVLTEGNPRWEQTHLTYRIENYTPDLPRADVDHAIEKAFQLWSNVTPLTFTKVSEGQADIMISFVRGDHRDNSPFDGPGGNLAHAFQPGPGIGGDAHFDEDERWTNNFREYNLHRVAAHELGHSLGLSHSTDIGALMYPSYTFSGDVQLAQDDIDGIQAIYGRSQNPVQPIGPQTPKACDSKLTFDAITTIRGEVMFFKDRFYMRTNPFYPEVELNFISVFWPQLPNGLEAAYEFADRDEVRFFKGNKYWAVQGQNVLHGYPKDIYSSFGFPRTVKHIDAALSEENTGKTYFFVANKYWRYDEYKRSMDPGYPKMIAHDFPGIGHKVDAVFMKDGFFYFFHGTRQYKFDPKTKRILTLQKANSWFNCRKN
On to B2, for which the kcat/Km amounted to 230 M⁻¹ s⁻¹.
